Measured values taken from article PMC1283526.

Target: T1, GST-ELAV (UniProt P16914 76-483)
T1 sequence: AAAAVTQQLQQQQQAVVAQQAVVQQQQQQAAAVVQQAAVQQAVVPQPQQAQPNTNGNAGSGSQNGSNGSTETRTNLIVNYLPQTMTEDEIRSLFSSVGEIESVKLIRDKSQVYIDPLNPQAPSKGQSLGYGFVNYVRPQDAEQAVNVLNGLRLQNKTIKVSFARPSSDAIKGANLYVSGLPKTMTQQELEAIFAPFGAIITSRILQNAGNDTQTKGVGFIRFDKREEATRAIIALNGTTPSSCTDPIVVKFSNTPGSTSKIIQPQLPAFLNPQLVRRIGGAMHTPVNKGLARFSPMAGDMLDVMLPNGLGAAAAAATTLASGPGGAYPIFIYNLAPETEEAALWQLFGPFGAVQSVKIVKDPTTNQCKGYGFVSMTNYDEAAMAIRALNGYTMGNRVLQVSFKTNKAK
Assay: competition

B1: SSE 20mer (ssRNA)
RNA: AUUUUUAUUUGUUAUUUUUU
- binding result: binds
